# Test results: patent US20260139055A1
# Substitutions are numbered along the chain they refer to. Numbers in names are those of the source.
# B1: wild-type canine IgGB (65) mAb (antibody, part only; not given: variable domains of unnamed mAb, not shown: another chain or arm of the molecule; small tags and cut ends)
# constant: ASTTAPSVFPLAPSCGSTSGSTVALACLVSGYFPEPVTVSWNSGSLTSGVHTFPSVLQSSGLYSLSSMVTVPSSRWPSETFTCNVAHPASKTKVDKPVPKRENGRVPRPPDCPKCPAPEMLGGPSVFIFPPKPKDTLLIARTPEVTCVVVDLDPEDPEVQISWFVDGKQMQTAKTQPREEQFNGTYRVVSVLPIGHQDWLKGKQFTCKVNNKALPSPIERTISKARGQAHQPSVYVLPPSREELSKNTVSLTCLIKDFFPPDIDVEWQSNGQQEPESKYRTTPPQLDEDGSYFLYSKLSVDKSRWQRGDTFICAVMHEALHNHYTQESLSHSPGK
# B2: canine IgGB (65) mAb with mutation D312W (antibody, part only; not given: Variable domains, not shown: another chain or arm of the molecule)
# constant: B1 constant with D198W
# B3: canine IgGB (65) mAb with mutation A426T (antibody, part only; not given: variable domains of unnamed mAb, not shown: another chain or arm of the molecule)
# constant: B1 constant with A314T
# B4: canine IgGB (65) mAb with mutation A426K (antibody, part only; not given: Variable domains, not shown: another chain or arm of the molecule)
# constant: B1 constant with A314K
# B5: canine IgGB (65) mAb with mutation T286C (antibody, part only; not given: variable domains of unnamed mAb, not shown: another chain or arm of the molecule)
# constant: B1 constant with T172C
# B6: canine IgGB (65) mAb with mutation D312Q (antibody, part only; not given: Variable domains, not shown: another chain or arm of the molecule)
# constant: B1 constant with D198Q
# B7: canine IgGB (65) mAb with mutation D312S (antibody, part only; not given: variable domains of unnamed mAb, not shown: another chain or arm of the molecule)
# constant: B1 constant with D198S
# B8: canine IgGB (65) mAb with mutation A426C (antibody, part only; not given: Variable domains, not shown: another chain or arm of the molecule)
# constant: B1 constant with A314C
# B9: canine IgGB (65) mAb with mutation D312M (antibody, part only; not given: Variable domains, not shown: another chain or arm of the molecule)
# constant: B1 constant with D198M
# B10: canine IgGB (65) mAb with mutation Q311K (antibody, part only; not given: Variable domains, not shown: another chain or arm of the molecule)
# constant: B1 constant with Q197K
# B11: canine IgGB (65) mAb with mutation T286G (antibody, part only; not given: Variable domains, not shown: another chain or arm of the molecule)
# constant: B1 constant with T172G
# B12: canine IgGB (65) mAb with mutation D312G (antibody, part only; not given: Variable domains, not shown: another chain or arm of the molecule)
# constant: B1 constant with D198G
# B13: canine IgGB (65) mAb with mutation A426L (antibody, part only; not given: variable domains of unnamed mAb, not shown: another chain or arm of the molecule)
# constant: B1 constant with A314L
# B14: canine IgGB (65) mAb with mutation D312V (antibody, part only; not given: variable domains of unnamed mAb, not shown: another chain or arm of the molecule)
# constant: B1 constant with D198V
# B15: canine IgGB (65) mAb with mutation Q311I (antibody, part only; not given: variable domains of unnamed mAb, not shown: another chain or arm of the molecule)
# constant: B1 constant with Q197I
# B16: canine IgGB (65) mAb with mutation A426E (antibody, part only; not given: Variable domains, not shown: another chain or arm of the molecule)
# constant: B1 constant with A314E
# B17: canine IgGB (65) mAb with mutation Q311D (antibody, part only; not given: Variable domains, not shown: another chain or arm of the molecule)
# constant: B1 constant with Q197D
# B18: canine IgGB (65) mAb with mutation Q311T (antibody, part only; not given: Variable domains, not shown: another chain or arm of the molecule)
# constant: B1 constant with Q197T
# B19: canine IgGB (65) mAb with mutation T286R (antibody, part only; not given: Variable domains, not shown: another chain or arm of the molecule)
# constant: B1 constant with T172R
# B20: canine IgGB (65) mAb with mutation A426P (antibody, part only; not given: Variable domains, not shown: another chain or arm of the molecule)
# constant: B1 constant with A314P
# B21: canine IgGB (65) mAb with mutation Q311R (antibody, part only; not given: Variable domains, not shown: another chain or arm of the molecule)
# constant: B1 constant with Q197R
# B22: canine IgGB (65) mAb with mutation Q311E (antibody, part only; not given: Variable domains, not shown: another chain or arm of the molecule)
# constant: B1 constant with Q197E
# B23: canine IgGB (65) mAb with mutation Q311L (antibody, part only; not given: Variable domains, not shown: another chain or arm of the molecule)
# constant: B1 constant with Q197L
# B24: canine IgGB (65) mAb with mutation T286P (antibody, part only; not given: Variable domains, not shown: another chain or arm of the molecule)
# constant: B1 constant with T172P
# B25: canine IgGB (65) mAb with mutation Q311S (antibody, part only; not given: variable domains of unnamed mAb, not shown: another chain or arm of the molecule)
# constant: B1 constant with Q197S
# B26: canine IgGB (65) mAb with mutation Q311Y (antibody, part only; not given: variable domains of unnamed mAb, not shown: another chain or arm of the molecule)
# constant: B1 constant with Q197Y
# B27: canine IgGB (65) mAb with mutation D312Y (antibody, part only; not given: variable domains of unnamed mAb, not shown: another chain or arm of the molecule)
# constant: B1 constant with D198Y
# B28: canine IgGB (65) mAb with mutation A426G (antibody, part only; not given: variable domains of unnamed mAb, not shown: another chain or arm of the molecule)
# constant: B1 constant with A314G
# B29: canine IgGB (65) mAb with mutation D312N (antibody, part only; not given: Variable domains, not shown: another chain or arm of the molecule)
# constant: B1 constant with D198N
# B30: canine IgGB (65) mAb with mutation Q311H (antibody, part only; not given: variable domains of unnamed mAb, not shown: another chain or arm of the molecule)
# constant: B1 constant with Q197H
# B31: canine IgGB (65) mAb with mutation T286H (antibody, part only; not given: variable domains of unnamed mAb, not shown: another chain or arm of the molecule)
# constant: B1 constant with T172H
# B32: canine IgGB (65) mAb with mutation Q311M (antibody, part only; not given: Variable domains, not shown: another chain or arm of the molecule)
# constant: B1 constant with Q197M
# B33: canine IgGB (65) mAb with mutation D312E (antibody, part only; not given: Variable domains, not shown: another chain or arm of the molecule)
# constant: B1 constant with D198E
# B34: canine IgGB (65) mAb with mutation T286E (antibody, part only; not given: Variable domains, not shown: another chain or arm of the molecule)
# constant: B1 constant with T172E
# B35: canine IgGB (65) mAb with mutation Q311P (antibody, part only; not given: variable domains of unnamed mAb, not shown: another chain or arm of the molecule)
# constant: B1 constant with Q197P
# B36: canine IgGB (65) mAb with mutation D312C (antibody, part only; not given: variable domains of unnamed mAb, not shown: another chain or arm of the molecule)
# constant: B1 constant with D198C
# B37: canine IgGB (65) mAb with mutation A426N (antibody, part only; not given: Variable domains, not shown: another chain or arm of the molecule)
# constant: B1 constant with A314N
# B38: canine IgGB (65) mAb with mutation D312F (antibody, part only; not given: Variable domains, not shown: another chain or arm of the molecule)
# constant: B1 constant with D198F
# B39: canine IgGB (65) mAb with mutation A426D (antibody, part only; not given: Variable domains, not shown: another chain or arm of the molecule)
# constant: B1 constant with A314D
# B40: canine IgGB (65) mAb with mutation D312K (antibody, part only; not given: variable domains of unnamed mAb, not shown: another chain or arm of the molecule)
# constant: B1 constant with D198K
# B41: canine IgGB (65) mAb with mutation Q311N (antibody, part only; not given: variable domains of unnamed mAb, not shown: another chain or arm of the molecule)
# constant: B1 constant with Q197N
# B42: canine IgGB (65) mAb with mutation D312A (antibody, part only; not given: variable domains of unnamed mAb, not shown: another chain or arm of the molecule)
# constant: B1 constant with D198A
# B43: canine IgGB (65) mAb with mutation D312R (antibody, part only; not given: variable domains of unnamed mAb, not shown: another chain or arm of the molecule)
# constant: B1 constant with D198R
# B44: canine IgGB (65) mAb with mutation A426Q (antibody, part only; not given: variable domains of unnamed mAb, not shown: another chain or arm of the molecule)
# constant: B1 constant with A314Q
# B45: canine IgGB (65) mAb with mutation Q311C (antibody, part only; not given: Variable domains, not shown: another chain or arm of the molecule)
# constant: B1 constant with Q197C
# B46: canine IgGB (65) mAb with mutation Q311G (antibody, part only; not given: Variable domains, not shown: another chain or arm of the molecule)
# constant: B1 constant with Q197G
# B47: canine IgGB (65) mAb with mutation T286N (antibody, part only; not given: Variable domains, not shown: another chain or arm of the molecule)
# constant: B1 constant with T172N
# B48: canine IgGB (65) mAb with mutation D312I (antibody, part only; not given: Variable domains, not shown: another chain or arm of the molecule)
# constant: B1 constant with D198I
# B49: canine IgGB (65) mAb with mutation D312L (antibody, part only; not given: Variable domains, not shown: another chain or arm of the molecule)
# constant: B1 constant with D198L
# B50: canine IgGB (65) mAb with mutation D312H (antibody, part only; not given: Variable domains, not shown: another chain or arm of the molecule)
# constant: B1 constant with D198H
# B51: canine IgGB (65) mAb with mutation T286S (antibody, part only; not given: Variable domains, not shown: another chain or arm of the molecule)
# constant: B1 constant with T172S
# B52: canine IgGB (65) mAb with mutation T286V (antibody, part only; not given: variable domains of unnamed mAb, not shown: another chain or arm of the molecule)
# constant: B1 constant with T172V
# B53: canine IgGB (65) mAb with mutation A426R (antibody, part only; not given: variable domains of unnamed mAb, not shown: another chain or arm of the molecule)
# constant: B1 constant with A314R
# B54: canine IgGB (65) mAb with mutation Q311W (antibody, part only; not given: variable domains of unnamed mAb, not shown: another chain or arm of the molecule)
# constant: B1 constant with Q197W
# B55: canine IgGB (65) mAb with mutation Q311F (antibody, part only; not given: Variable domains, not shown: another chain or arm of the molecule)
# constant: B1 constant with Q197F
# B56: canine IgGB (65) mAb with mutation T286D (antibody, part only; not given: Variable domains, not shown: another chain or arm of the molecule)
# constant: B1 constant with T172D
# B57: canine IgGB (65) mAb with mutation A426I (antibody, part only; not given: Variable domains, not shown: another chain or arm of the molecule)
# constant: B1 constant with A314I
# B58: canine IgGB (65) mAb with mutation T286Q (antibody, part only; not given: Variable domains, not shown: another chain or arm of the molecule)
# constant: B1 constant with T172Q
# B59: canine IgGB (65) mAb with mutation D312T (antibody, part only; not given: Variable domains, not shown: another chain or arm of the molecule)
# constant: B1 constant with D198T
# B60: canine IgGB (65) mAb with mutation A426M (antibody, part only; not given: Variable domains, not shown: another chain or arm of the molecule)
# constant: B1 constant with A314M
# B61: canine IgGB (65) mAb with mutation A426S (antibody, part only; not given: Variable domains, not shown: another chain or arm of the molecule)
# constant: B1 constant with A314S
# Target: canine FcRn complex (FcRn-alpha subunit and beta-microglobulin), His-tagged, biotin labeled (canine)
# Assay: SPR (Biacore), biotin-FcRn captured on SA surface, IgG flowed over, pH 6, 15 C
row,Kd,Binder
1,30.7 nM,B1
2,14.4 nM,B2
3,8.72 nM,B3
4,3.81 nM,B4
5,8.19 nM,B5
6,9.97 nM,B6
7,14.8 nM,B7
8,8.86 nM,B8
9,16.2 nM,B9
10,6.23 nM,B10
11,6.48 nM,B11
12,26.8 nM,B12
13,5.17 nM,B13
14,14.1 nM,B14
15,7.94 nM,B15
16,4.77 nM,B16
17,13.3 nM,B17
18,10.7 nM,B18
19,4.73 nM,B19
20,23.7 nM,B20
21,15.2 nM,B21

row,Kd,Binder
1,9.39 nM,B22
2,19.1 nM,B23
3,6.73 nM,B24
4,8.7 nM,B25
5,2.61 nM,B26
6,25.1 nM,B27
7,7.36 nM,B28
8,17.1 nM,B29
9,6.66 nM,B30
10,5.07 nM,B31
11,13.1 nM,B32
12,14.1 nM,B33
13,8.66 nM,B34
14,21.2 nM,B35
15,19 nM,B36
16,5.33 nM,B37
17,21.9 nM,B38
18,14.9 nM,B39
19,24 nM,B40
20,10.1 nM,B41
21,10.3 nM,B42

row,Kd,Binder
1,23.1 nM,B43
2,8.41 nM,B44
3,10.3 nM,B45
4,8.42 nM,B46
5,6.32 nM,B47
6,21.5 nM,B48
7,12.1 nM,B49
8,9.72 nM,B50
9,6.68 nM,B51
10,8.36 nM,B52
11,4.23 nM,B53
12,2.49 nM,B54
13,33 nM,B55
14,6.83 nM,B56
15,8.54 nM,B57
16,8.58 nM,B58
17,10.6 nM,B59
18,8.84 nM,B60
19,11.9 nM,B61
